Measured values from patent US20100304465.

Target: delta-plasminogen
Sequence (chain, as listed by the source mutant): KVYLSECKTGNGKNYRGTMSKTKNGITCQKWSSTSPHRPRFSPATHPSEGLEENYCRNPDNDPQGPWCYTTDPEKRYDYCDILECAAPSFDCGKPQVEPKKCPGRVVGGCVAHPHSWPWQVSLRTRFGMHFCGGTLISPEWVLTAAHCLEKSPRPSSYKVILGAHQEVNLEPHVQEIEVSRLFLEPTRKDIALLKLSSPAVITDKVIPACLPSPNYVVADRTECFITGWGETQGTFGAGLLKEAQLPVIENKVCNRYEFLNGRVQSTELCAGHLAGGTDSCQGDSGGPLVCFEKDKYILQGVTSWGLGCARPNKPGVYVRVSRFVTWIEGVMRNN

B1: tissue Plasminogen Activator (protein)
chain: SYQVICRDEKTQMIYQQHQSWLRPVLRSNRVEYCWCNSGRAQCHSVPVKSCSEPRCFNGGTCQQALYFSDFVCQCPEGFAGKCCEIDTRATCYEDQGISYRGTWSTAESGAECTNWNSSALAQKPYSGRRPDAIRLGLGNHNYCRNPDRDSKPWCYVFKAGKYSSEFCSTPACSEGNSDCYFGNGSAYRGTHSLTESGASCLPWNSMILIGKVYTAQNPSAQALGLGKHNYCRNPDGDAKPWCHVLKNRRLTWEYCDVPSCSTCGLRQYSQPQFRIKGGLFADIASHPWQAAIFAKHRRSPGERFLCGGILISSCWILSAAHCFQERFPPHHLTVILGRTYRVVPGEEEQKFEVEKYIVHKEFDDDTYDNDIALLQLKSDSSRCAQESSVVRTVCLPPADLQLPDWTECELSGYGKHEALSPFYSERLKEAHVRLYPSSRCTSQHLLNRTVTDNMLCAGDTRSGGPQANLHDACQGDSGGPLVCLNDGRMTLVGIISWGLGCGQKDVPGVYTKVTNYLDWIRDNMRP
conversion of one-chain delta-plasminogen into two-chain delta-plasmin (reduced SDS-PAGE): delta-plasminogen indeed can be activated by all three plasminogen activators
